From paper PMC9116394, “Triple-negative and triple-positive breast cancer cells reciprocally control their growth and migration via the S100A4 pathway” (Cell Adhesion & Migration, 2022)

Molecular target: the molecule itself
Test: western blot of cell extracts; extracts of TNBC (MDA-MB-231) cells incubated in TPBC-medium, TNBC-medium or S-medium; detected with a polyclonal antibody to S100A4; gel conditions not stated

B1: S100A4 protein (natural protein)
chain: not shown
notes: S100A4 (Mts1), endogenous in the human triple-negative breast carcinoma cell line MDA-MB-231; Monomeric, dimeric and tetrameric forms were told apart as bands on a western blot of cell extracts; also called Mts1; source: endogenous, MDA-MB-231 (TNBC) cell extract
stoichiometry N: 4
